# Reference: patent US20040072753
# Experiments:
# [1] = tested on: T1, histone H1 peptide substrate PKTPKKAKKL
# T1 sequence: PKTPKKAKKL
# Aβ 25-35 = tested on: T2, Aβ 25-35
# T2 sequence: GSNKGAIIGLM
substance,measurement,setting,value
recombinant p34-cdc2/cyclin B1 (Promega),incorporation of 32P from γ32P-ATP,Aβ 1-40,"Aβ 1-42, Aβ 1-40 and Aβ 25-35 incorporated 32P from γ32P-ATP"
same,incorporation of 32P from γ32P-ATP,Aβ 1-42,"Aβ 1-42, Aβ 1-40 and Aβ 25-35 incorporated 32P from γ32P-ATP"
same,Michaelis constant (KM) for the phosphorylation,[1],a KM of 2.7 µM for the H1 peptide substrate
same,incorporation of 32P from γ32P-ATP,Aβ 25-35,"Aβ 1-42, Aβ 1-40 and Aβ 25-35 incorporated 32P from γ32P-ATP"
